Source: publication PMC8943033, “A toolkit for recombinant production of seven human EGF family growth factors in active conformation” (Scientific Reports, 2022)

Columns and labels:
[1] = molecular target: human amphiregulin, recombinant heparin-binding and EGF domains (human, UniProt P15514 101-198); assay: SEC; Superdex 75 10/300 GL, 25 mM Tris.HCl pH 8.0; 150 mM NaCl, flow rate 0.8 mL/min; oligomeric state read from the elution volume; details: both partners purified
[2] = molecular target: human heparin-binding epidermal growth factor, recombinant heparin-binding and EGF domains (human, UniProt Q99075 63-148); assay: as above; details: both partners purified

stoichiometry N [1]	stoichiometry N [2]	Binder
2	–	human amphiregulin, recombinant heparin-binding and EGF domains (ligand, three disulfides (C1-C3, C2-C4, C5-C6); SEC suggests a dimer; N-terminal pET32a linker remnant omitted / three disulfides (C1-C3, C2-C4, C5-C6); SEC suggests a dimer; N-terminal pET32a linker remnant) SVRVEQVVKPPQNKTESENTSDKPKRKKKGGKNGKNRRNRKKKNPCNAEFQNFCIHGECKYIEHLEAVTCKCQQEYFGERCGEKSMKTHSMIDSSLSK
–	2	human heparin-binding epidermal growth factor, recombinant heparin-binding and EGF domains (ligand, three disulfides (C1-C3, C2-C4, C5-C6); SEC suggests a dimer; N-terminal pET32a linker remnant omitted / three disulfides (C1-C3, C2-C4, C5-C6); SEC suggests a dimer; N-terminal pET32a linker remnant) DLQEADLDLLRVTLSSKPQALATPNKEEHGKRKKKGKGLGKKRDPCLRKYKDFCIHGECKYVKELRAPSCICHPGYHGERCHGLSL
